Test results taken from PMC10411777, “Analytical sameness methodology for the evaluation of structural, physicochemical, and biological characteristics of Armlupeg: A pegfilgrastim biosimilar case study” (PLOS ONE, 2023).

Molecular target: G-CSF receptor (UniProt Q99062 25-836)
Experiment: SPR; BIAcore T200; G-CSF receptor immobilised on a CM5 chip at 2000 RU by amine coupling; pegfilgrastim injected at seven concentrations from 0.08 to 5 nM; 1:1 binding model; KD from kinetics; triplicates for each batch
Conditions: both partners purified

Chain of G-CSF receptor (Q99062 25-836): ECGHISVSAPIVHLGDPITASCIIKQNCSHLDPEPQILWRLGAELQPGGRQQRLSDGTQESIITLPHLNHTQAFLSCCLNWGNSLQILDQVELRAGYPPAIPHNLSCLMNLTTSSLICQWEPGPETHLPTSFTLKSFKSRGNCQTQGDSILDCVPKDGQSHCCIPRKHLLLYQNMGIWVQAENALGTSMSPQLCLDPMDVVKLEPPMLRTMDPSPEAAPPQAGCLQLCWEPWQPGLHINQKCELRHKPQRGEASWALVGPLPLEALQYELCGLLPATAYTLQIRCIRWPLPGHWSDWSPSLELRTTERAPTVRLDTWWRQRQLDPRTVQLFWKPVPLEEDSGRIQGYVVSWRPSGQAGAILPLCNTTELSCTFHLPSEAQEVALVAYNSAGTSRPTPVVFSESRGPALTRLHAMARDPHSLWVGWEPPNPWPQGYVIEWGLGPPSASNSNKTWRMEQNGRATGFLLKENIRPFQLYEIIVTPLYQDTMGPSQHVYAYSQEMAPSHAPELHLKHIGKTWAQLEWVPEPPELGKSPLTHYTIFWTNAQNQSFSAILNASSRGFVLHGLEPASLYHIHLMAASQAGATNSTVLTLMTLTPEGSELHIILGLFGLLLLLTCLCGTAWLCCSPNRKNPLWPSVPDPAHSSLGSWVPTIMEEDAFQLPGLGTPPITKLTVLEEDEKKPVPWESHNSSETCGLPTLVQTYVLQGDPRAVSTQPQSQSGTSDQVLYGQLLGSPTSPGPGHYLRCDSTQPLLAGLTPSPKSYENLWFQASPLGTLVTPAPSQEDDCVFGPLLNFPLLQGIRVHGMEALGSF

Kd: 0.0512 to 0.118 nM
B1: Armlupeg (Lupin’s Pegfilgrastim) (ligand, human)
chain: MTPLGPASSLPQSFLLKCLEQVRKIQGDGAALQEKLCATYKLCHPEELVLLGHSLGIPWAPLSSCPSQALQLAGCLSQLHSGLFLYQGLLQALEGISPELGPTLDTLQLDVADFATTIWQQMEELGMAPALQPTQGAMPAFASAFQRRAGGVLVASHLQSFLEVSYRVLRHLAQP
modifications: 20 kDa monomethoxy polyethylene glycol (PEG) covalently bound to the N-terminal methionine residue
notes: N-terminal methionine residue of filgrastim, named in words; it carries the PEG; Filgrastim: recombinant human granulocyte colony-stimulating factor (G-CSF), 175 amino acids with the N-terminal methionine; 18 lots were used for SPR; also called proposed biosimilar; source: Armlupeg drug product lots (Lupin Limited)
